Measured values as given in patent publication US20260265360A1, “USE OF ANTI-FAM19A5 ANTAGONISTS FOR TREATING HEARING DISORDERS” (NEURACLE SCIENCE CO., LTD., priority 2023, published 2026).

Tests used:
[1] = tested on: noise-induced hearing loss mouse model; assay: Noise-induced hearing loss mouse model, first antibody dose 2 hours post noise exposure; type: in vivo; details: first dose 2 hours post noise
Description: FIGS. 13A, 13B, 13C, 13D, and 13E show the therapeutic effect of FAM19A5 antagonists (administered 2 hours after noise induction) on auditory brainstem response (ABR) threshold in a noise-induced hearing loss mouse model. The overall design was similar as that provided in FIG. 6A, except that the antibodies were administered to the animals at 2 hours post noise induction. FIG. 13A provides the results before noise exposure. FIG. 13B provides the results at one day post noise exposure. FIG. 13C provides the results at two weeks post noise exposure. FIG. 13D provides the results at four weeks post noise exposure. FIG. 13E provides the results at eight weeks post noise exposure. ABR threshold was measured at a frequency ranging from 4 kHz to 64 kHz.
FIGS. 14A and 14B show the effect of FAM19A5 antagonists on ABR I/O function in a noise-induced hearing loss mouse model. FIG. 14A provides comparisons of wave I amplitude (1st graph) and wave IV amplitude (2nd graph) in animals treated with the anti-FAM19A5 antibody (square), before noise group (triangle) or control IgG antibody (circle) 2 weeks after noise exposure. FIG. 14B provides comparisons of wave I amplitude (1st graph) and wave IV amplitude (2nd graph) in animals treated with the anti-FAM19A5 antibody (square), before noise group (triangle) or control IgG antibody (circle) 4 weeks after noise exposure. Tone bursts were measured across 0 and 90 dB.
Next, to assess whether the timing of the anti-FAM19A5 antibody administration has an effect, the above-described noise-induced hearing loss mouse model was used again. Again, to induce hearing loss, the animals were exposed to a temporary threshold shift (TTS) of 105 decibels for 30 minutes. An anti-FAM19A5 antibody (1-30 antibody) or a control human IgG antibody was intravenously administered to the animals once weekly for 5 total administration (30 mg/kg per dose). […] Hearing loss was assessed (e.g., by measuring ABR threshold, DPOAE threshold, and/or DPOAE amplitude) in the animals prior to the noise exposure and then again at one day, two weeks, and four weeks post noise exposure.

[2] = tested on: inner hair cells of mouse cochlear explant; assay: Reversal of FAM19A5-induced inhibition of synaptogenesis (CtBP2 puncta); type: cell-based; details: 1 μM FAM19A5 protein plus anti-FAM19A5 antibody, treated 1 DIV, stained 2 DIV
Description: Cochlear explant were cultured in medium consisting of plating media, which consist of Neurobasal media (Invitrogen), 1% N2 supplement, and 10 μg/mL Ampicillin with culture media with additional 1% FBS.
Postnatal day 4-5 (P4-5) C57BL/6 mice were sacrificed for inner ear dissection. Mouse head was bisected, and brain tissue was removed. Cochlea was carefully separated the from the extraneous bones in ice-cold HBSS (5 mM HEPES/1.3 mM CaCl2), 0.9 mM MgCl2, pH 7.4) or External solution (1.2 mM CaCl2), 1 mM MgCl2, 5 mM HEPES in HBSS). Then the stria vascularis and spiral bone plate was removed, and cochlea was cut into two to three sections. […]
Mouse cochlear explant cultures were treated with FAM19A5, FAM19A5 combined with a FAM19A5 antagonist (e.g., described herein, e.g., 1-30 antibody), or a FAM19A5 antagonist (e.g., described herein, e.g., 1-30 antibody) alone at 1 DIV to determine the level of synaptogenesis at 2 DIV by immunostaining CtBP2, a ribbon synapse marker. To quantify the number of CtBP2 puncta of individual inner hair cells, z-stack confocal images were exported in “multi-page” and the number of CtBP2 puncta from each individual inner hair cells were measured using ROI manger and multi-point tool from Fiji (Image J). Number of CtBP2 puncta from five individual inner hair cells were counted per image and 3 z-stack images were measured from each treatment group. […]

[3] = 2 and 4 weeks after noise, particularly at higher tone-burst levels

B1: 1-30: anti-FAM19A5 antibody, de-immunized variant of 3-2; VH SEQ ID NO: 235, VL SEQ ID NO: 240 (antibody, V domains shown)
VH: AVTLDESGGGLQTPGGALRLSCKASGFDFESFNMFWVRQAPGKGLEYVSQISSSEEDENYAPAVKGRATISRDNGQSTLYLQMNSLRAEDTGTYYCAKSSYDCPYGHCSSGVDSAGEIDAWGHGTEVIVSS
VL: ALTQPSSVSANPGETVKITCSGGGSEEEQYYYGWYQQKPGSAPVTLIYQDEERPSDIPSRFSGSTSGSTATLTITGVQAGDEADYYCGSWDSEDEDHFGAGTTLTVL
modifications: Low-PI VH, 1-30 VH, 1-17 VH, 1-32 VH, 4-11 VH, 6-10 VH; 1-30 VL
B1 was tested, and the “ABR threshold vs control antibody” value ([1]; 30 mg/kg i.v. weekly x5) was “did not appear to be any significant differences”, the “Wave I amplitude vs control antibody” value [1, 3] was “noticeable differences were observed” and the “Wave IV amplitude vs control antibody” value [1, 3] was “noticeable differences were observed”. The “number of CtBP2 puncta in inner hair cells” value [2] was “increased (as compared to the FAM19A5 protein alone group) and comparable to that of the control group”.
